This is an account of results in patent publication US20260209345A1 (IOMX THERAPEUTICS, published 2026).

Numbering of substitutions follows the chain as printed.

The target of test [1] is T1, recombinant LILRB1 ECD (human, UniProt Q8NHL6 24-461).
T1 construct: also called biotinylated LILRB1 ECD
Nature of the test: ELISA, LILRB1 ECD binding to HLA-G-Fc. The protocol:
(§1) HLA-G inhibition was tested by ELISA. 384-well Maxisorp plates were coated with 2 ug/mL B2M-HLA-G fused to a mouse IgG2a-Fc and the plates were blocked with 2% (w/v) BSA in PBST. […] 15 ul of the antibody dilution series (300 nM to 0.3 nM) were mixed with 30 μL of the pre-mixed LILRB/Avidin-HRP solution (final antibody concentration 100 nM to 0.1 nM) and incubated for 1 h at room temperature. After three wash cycles with PBST, 20 μL of the antibody/LILRB/Avidin-HRP solution was transferred to the plate with immobilized HLA-G and incubated for 15 min at room temperature. After three wash cycles with PBST, residual LILRB binding to HLA-G was detected by developing the ELISA with TMB substrate.

Test [2] concerns the target T2, recombinant LILRA3 (human, UniProt Q8N6C8 24-439).
T2 construct: whole entry named; also called LILRA3 ECD; LILA3
Description: BLI, IgG on AHC sensor, ECD in solution. The protocol:
(§2) Briefly, IgGs were captured on anti-human capture (AHC) biosensors (Sartorius). […] Subsequently, the sensors were dipped into 1× Kinetics Buffer to measure the dissociation over 420 s. All sensorgrams were double referenced against 1× Kinetics Buffer and unloaded […] sensors to subtract sensor drifts and potential reference binding of the analytes. The affinities were determined by applying a 1:1 binding model.
On the technique in general: BLI is a label-free optical method that tracks binding on a fibre tip over time.

The target in test [3] is T1, recombinant LILRB1 ECD. Description: BLI, IgG on AHC sensor, ECD in solution. The protocol: as §2
In test [4] the target is T3, recombinant LILRA1 ECD (human, UniProt O75019 17-461).
T3 construct: whole canonical entry named; also called LILA1
Description: BLI, IgG on AHC sensor, ECD in solution. The protocol:
as §2

The target of test [5] is T4, recombinant LILRB2 ECD (human, UniProt Q8N423 22-460).
T4 construct: also called biotinylated LILRB2 ECD
Description: BLI, IgG on AHC sensor, ECD in solution. The protocol:
as §2

The target in test [6] is T4, recombinant LILRB2 ECD. Nature of the test: ELISA, LILRB2 ECD binding to HLA-G-Fc. The protocol:
as §1
Background: ELISA stands for enzyme-linked immunosorbent assay.

T1 sequence (Q8NHL6 24-461 limits assumed): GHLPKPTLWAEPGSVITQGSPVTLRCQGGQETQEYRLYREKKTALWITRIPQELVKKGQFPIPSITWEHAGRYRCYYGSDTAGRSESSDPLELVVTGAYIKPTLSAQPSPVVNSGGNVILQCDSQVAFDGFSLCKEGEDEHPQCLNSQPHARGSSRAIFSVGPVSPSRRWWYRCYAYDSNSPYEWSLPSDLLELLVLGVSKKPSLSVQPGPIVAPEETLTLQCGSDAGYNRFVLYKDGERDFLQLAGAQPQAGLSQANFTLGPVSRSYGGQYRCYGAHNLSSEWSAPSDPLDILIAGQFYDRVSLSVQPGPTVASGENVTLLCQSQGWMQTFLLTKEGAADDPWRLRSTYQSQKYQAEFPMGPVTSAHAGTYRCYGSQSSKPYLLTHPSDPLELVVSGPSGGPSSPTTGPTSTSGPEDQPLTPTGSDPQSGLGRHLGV
T3 sequence (O75019 17-461 limits assumed): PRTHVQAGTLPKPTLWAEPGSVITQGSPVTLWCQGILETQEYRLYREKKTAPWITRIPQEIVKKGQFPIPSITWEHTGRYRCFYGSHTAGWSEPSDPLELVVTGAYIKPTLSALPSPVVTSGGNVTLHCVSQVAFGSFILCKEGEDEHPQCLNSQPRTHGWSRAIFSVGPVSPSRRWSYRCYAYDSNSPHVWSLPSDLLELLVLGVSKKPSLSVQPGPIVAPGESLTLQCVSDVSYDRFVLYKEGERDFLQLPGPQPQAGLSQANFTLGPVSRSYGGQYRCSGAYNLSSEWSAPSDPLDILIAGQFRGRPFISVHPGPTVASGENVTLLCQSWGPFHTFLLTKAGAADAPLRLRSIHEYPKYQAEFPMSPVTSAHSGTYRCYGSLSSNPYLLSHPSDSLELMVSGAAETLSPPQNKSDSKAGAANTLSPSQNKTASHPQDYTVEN
T2 sequence (Q8N6C8 24-439 limits assumed): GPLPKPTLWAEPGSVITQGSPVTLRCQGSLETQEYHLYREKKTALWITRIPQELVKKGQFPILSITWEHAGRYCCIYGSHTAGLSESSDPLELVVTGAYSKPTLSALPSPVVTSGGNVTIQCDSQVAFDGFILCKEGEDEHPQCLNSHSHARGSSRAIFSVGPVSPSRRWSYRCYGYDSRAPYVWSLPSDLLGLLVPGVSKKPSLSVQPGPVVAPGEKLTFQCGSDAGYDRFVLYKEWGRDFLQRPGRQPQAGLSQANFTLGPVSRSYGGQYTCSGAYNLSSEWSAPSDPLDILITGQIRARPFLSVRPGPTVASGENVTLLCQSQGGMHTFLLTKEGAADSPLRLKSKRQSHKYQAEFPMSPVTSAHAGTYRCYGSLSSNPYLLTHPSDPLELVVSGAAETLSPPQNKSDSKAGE
T4 sequence (Q8N423 22-460 limits assumed): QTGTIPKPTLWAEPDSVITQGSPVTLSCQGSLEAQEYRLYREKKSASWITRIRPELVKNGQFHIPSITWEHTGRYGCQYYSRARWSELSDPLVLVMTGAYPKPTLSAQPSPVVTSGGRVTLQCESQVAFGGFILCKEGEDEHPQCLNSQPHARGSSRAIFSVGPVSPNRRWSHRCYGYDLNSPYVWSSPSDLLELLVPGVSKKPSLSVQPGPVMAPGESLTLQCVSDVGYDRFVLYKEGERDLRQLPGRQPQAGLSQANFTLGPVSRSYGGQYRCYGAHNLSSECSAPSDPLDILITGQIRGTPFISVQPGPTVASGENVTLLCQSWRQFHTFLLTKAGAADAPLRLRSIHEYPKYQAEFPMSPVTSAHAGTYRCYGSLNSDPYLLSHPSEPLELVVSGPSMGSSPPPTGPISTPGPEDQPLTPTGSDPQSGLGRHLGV

With “Ref051 [BND-22, LILRB1 specific] (antibody)”, the IC50 – broadly, the concentration that inhibits the measured activity by half – in test [1] amounted to 1.8 nM. Further, the Kd (usually the concentration at which binding is half-saturated) in test [2] is 39.4 nM; in test [3], 6.9 nM; in test [4], 15.1 nM.

B1: A-022 (antibody, V domains shown)
VH: QVQLVQSGAEVKKPGSSVKVSCKASGGTFGGSAISWVRQAPGQGLEWMGGIVLAYSTSVYAQKFQGRVTITADESTSTAYMELSSLRSEDTAVYYCAKGPPVGSSSWYTDWYFDLWGRGTLVTVSS
VL: SYELTQPPSVSVSPGQTASITCSGDKLGDKYASWYQQKPGQSPVLVIYQDSKRPSGIPERFSGSNSGNTATLTISGTQAEDEADYYCLSYGAHSHGVVFGGGTKLTVL
notes: tested as IgG
For B1, the half-inhibitory concentration (IC50) in test [1] is 3.9 nM; in test [6] it was 3.1 nM. The values for the Kd in test [2], in test [3] and in test [5] were 317 nM, 5.2 nM and 4.4 nM, respectively.

B2: A-037 (antibody, V domains shown)
VH: QVQLVQSGAEVKKPGSSVKVSCKASGGTFSSYAISWVRQAPGQGLEWMGGIIPIFGTANYAQKFQGRVTITADESTSTAYMELSSLRSEDTAVYYCARVHLYYHFPASYFDYWGQGTLVTVSS
VL: B1 VL with S89A, Y90S, G91L, A92G, H93T, S94G, H95G, G96V, V97Y
notes: tested as IgG
For B2, the 50% inhibitory concentration (IC50) in test [1] came out at 3.8 nM; in test [6], 3.5 nM. Further, the Kd in test [3] came out at 16 nM; in test [4], 1270 nM; in test [5] it was 2 nM.

B3: A-001 (antibody, V domains shown)
VH: QVQLVQSGAEVKKPGSSVKVSCKASGGTFSSYAISWVRQAPGQGLEWMGGIIPIFGTANYAQKFQGRVTITADESTSTAYMELSSLRSEDTAVYYCAKDLGTYSSGWPYYYGMDVWGQGTTVTVSS
VL: SYELTQPPSVSVSPGQTASITCSGDKLGDKYASWYQQKPGQSPVLVIYQDSKRPSGIPERFSGSNSGNTATLTISGTQAEDEADYYCQSTTHTSFVFGGGTKLTVL
notes: tested as IgG; also called parental antibody A-001
In the case of B3, the 50% inhibitory concentration (IC50) amounted to 5.1 nM in test [1] and 3.1 nM in test [6]. Besides, the Kd in test [2] is 576 nM; in test [3], 157 nM; in test [4], 1820 nM; in test [5], 36.4 nM.

B4: A-007 (antibody, V domains shown)
VH: B3 VH with T28S, S30R, S31E, I34F, G50S, I54T, G56H, A58S, Q62G
VL: B3 VL
notes: tested as IgG
As for B4, the half-inhibitory concentration (IC50) is 3.3 nM in test [1] and 3.6 nM in test [6]. Moreover, the equilibrium dissociation constant (Kd) in test [2] was 255 nM; in test [3] it was 11.7 nM; in test [4], 322 nM; in test [5], 1.2 nM.

B5: A-015 (antibody, V domains shown)
VH: B3 VH with T28S, S30Q, S35N, I54G, G56S
VL: B3 VL
notes: tested as IgG
With B5, the IC50 in test [1] stood at 4.4 nM; in test [6], 3.2 nM. The equilibrium dissociation constant (Kd) in test [2] is 202 nM; in test [3], 5 nM; in test [4], 868 nM; in test [5], 3.5 nM.

B6: A-012 (antibody, V domains shown)
VH: B3 VH with F29I, S31E, I34F, S35L, I54K, G56H
VL: B3 VL
notes: tested as IgG
As to B6, the 50% inhibitory concentration (IC50) in test [1] was determined as 3.3 nM; in test [6] it was 3.8 nM. Moreover, the Kd in test [2] was determined as 166 nM; in test [3], 12.8 nM; in test [4], 469 nM; in test [5], 6.8 nM.

B7: A-013 (antibody, V domains shown)
VH: B3 VH with S30R, S31Q, Y32E, I34F, G50S, G56Y, T57S, A58S
VL: B3 VL
notes: tested as IgG
As for B7, the IC50 worked out at 4.5 nM in test [1] and 4.6 nM in test [6]. The Kd was 622 nM in test [2], 6.3 nM in test [3], 1080 nM in test [4] and 4.2 nM in test [5].

B8: A-036 (antibody, V domains shown)
VH: B3 VH
VL: B3 VL with S89L, T91H, H92L, S94I, F95Y
notes: tested as IgG
Regarding B8, the IC50 in test [1] worked out at 1.2 nM; in test [6], 2.7 nM. In addition, the Kd in test [3] amounted to 35.8 nM; in test [4] it was 42900 nM; in test [5], 18.6 nM.

B9: A-046 (antibody, V domains shown)
VH: B3 VH with T28S, S30Q, S35N, I54G, G56S
VL: B3 VL with S89L, T91H, H92L, S94I, F95Y
notes: tested as IgG
As to B9, the figures for the IC50 in test [1] and in test [6] were 2 nM and 3.7 nM, respectively. Further, the results for the Kd in test [3] and in test [5] were 12.6 nM and 9.4 nM, respectively. In addition, the binding result in test [4] is on record as “no binding (tested: 900 nM)”.

B10: A-006 (antibody, V domains shown)
VH: B3 VH with S31Q, I34F, G50S, I54G, G56T, A58S, Q62H
VL: B3 VL
notes: tested as IgG
With B10, the IC50 in test [1] was 6.1 nM; in test [6], 4.8 nM. The Kd turned out to be 182 nM in test [2], 0.5 nM in test [3], 190 nM in test [4] and 2.3 nM in test [5].

B11: A-009 (antibody, V domains shown)
VH: B3 VH with S31V, Y32T, S35L, I54S, G56T, T57S, Q62S
VL: B3 VL
notes: tested as IgG
B11: the IC50 in test [1] and in test [6] was 5.5 nM in each case. Also, the dissociation constant Kd in test [2] is 92.8 nM; in test [3], 3.7 nM; in test [4], 194 nM; in test [5] it was 3.4 nM.

B12: A-010 (antibody, V domains shown)
VH: B3 VH with S30Q, Y32Q, I34F, S35A, G50S, I54G, G56S
VL: B3 VL
As to B12, the values for the IC50 in test [1] and in test [6] were 4.1 nM and 3.7 nM, respectively. In addition, the Kd in test [2] amounted to 217 nM; in test [3], 4.5 nM; in test [4], 760 nM; in test [5], 3.3 nM.

B13: A-016 (antibody, V domains shown)
VH: B3 VH with I34F, S35N, G50S, G56K
VL: B3 VL
notes: tested as IgG
Consider B13, for which the results for the IC50 in test [1] and in test [6] were 4.4 nM and 5.1 nM, respectively. In addition, the Kd in test [2] was found to be 116 nM; in test [3], 6.5 nM; in test [4], 402 nM; in test [5], 1.4 nM.

B14: A-008 (antibody, V domains shown)
VH: B3 VH with S30A, S31E, Y32S, S35L, I52V, I54S, G56Y, T57S
VL: B3 VL
notes: tested as IgG
Turning to B14, the concentration for half-maximal inhibition (IC50) came out at 4.1 nM in test [1] and 4 nM in test [6]. In addition, the dissociation constant (Kd) in test [2] amounted to 355 nM; in test [3], 7.4 nM; in test [4] it was 1520 nM; in test [5], 8.8 nM.

B15: A-005 (antibody, V domains shown)
VH: B3 VH with S30T, S31I, S35N, I54G, G56H, T57S
VL: B3 VL
notes: tested as IgG
As for B15, the half-maximal inhibitory concentration (IC50) amounted to 5 nM in test [1] and 4.3 nM in test [6]. For the same molecule, the Kd was 161 nM in test [2], 1 nM in test [3], 407 nM in test [4] and 3.3 nM in test [5].

B16: A-011 (antibody, V domains shown)
VH: B3 VH with T28S, S31H, Y32S, I34F, G50S, I54A, G56Y
VL: B3 VL
notes: tested as IgG
B16: the IC50 was 6.1 nM in test [1] and 5.5 nM in test [6]. In addition, the Kd in test [2] came out at 137 nM; in test [3], 9.3 nM; in test [4] it was 470 nM; in test [5], 4.4 nM.

B17: A-014 (antibody, V domains shown)
VH: B3 VH with S35N, G56H, A58S
VL: B3 VL
notes: tested as IgG
Consider B17, for which the results for the IC50 in test [1] and in test [6] were 3.8 nM and 4.2 nM, respectively. Further, the Kd in test [2] amounted to 58.8 nM; in test [3] it was 4.4 nM; in test [4], 471 nM; in test [5] it was 2.3 nM.

B18: A-004 (antibody, V domains shown)
VH: B3 VH with S30R, S31T, Y32K, S35A, G56S, Q62P
VL: B3 VL
notes: tested as IgG
B18: the half-inhibitory concentration (IC50) in test [1] came out at 4.4 nM; in test [6] it was 4.5 nM. Also, the Kd in test [2] was determined as 232 nM; in test [3] it was 12.8 nM; in test [4], 569 nM; in test [5] it was 7.1 nM.
